Assay results as given in patent publication US20240118272A1.

Key:
[1] = target: CD9(FL)-ALP conjugate (human; bovine); assay: HI-1000 capture immunoassay; calibrator C4, 15 ng/mL; run 1
[2] = target: CD9(FL)-ALP conjugate (human; bovine); assay: HI-1000 capture immunoassay; calibrator C5, 30 ng/mL; run 1
[3] = target: CD9(FL)-ALP conjugate (human; bovine); assay: HI-1000 capture immunoassay; calibrator C1, 1.0 ng/mL; run 1
[4] = target: CD9(FL)-ALP conjugate (human; bovine); assay: HI-1000 capture immunoassay; calibrator C2, 3.7 ng/mL; run 1
[5] = target: CD9(FL)-ALP conjugate (human; bovine); assay: HI-1000 capture immunoassay; calibrator C2, 3.7 ng/mL; run 3
[6] = target: CD9(FL)-ALP conjugate (human; bovine); assay: HI-1000 capture immunoassay; calibrator C1, 1.83 mU/L; run 1
[7] = target: CD9(FL)-ALP conjugate (human; bovine); assay: HI-1000 capture immunoassay; calibrator C2, 5.48 mU/L; run 1
[8] = target: CD9(FL)-ALP conjugate (human; bovine); assay: HI-1000 capture immunoassay; calibrator C2, 5.48 mU/L; run 3
[9] = target: CD9(FL)-ALP conjugate (human; bovine); assay: HI-1000 capture immunoassay; calibrator C3, 10.96 mU/L; run 1
[10] = target: CD9(FL)-ALP conjugate (human; bovine); assay: HI-1000 capture immunoassay; calibrator C4, 21.93 mU/L; run 3
[11] = target: CD9(FL)-ALP conjugate (human; bovine); assay: HI-1000 capture immunoassay; calibrator C5, 43.86 mU/L; run 2
[12] = target: CD9(FL)-ALP conjugate (human; bovine); assay: HI-1000 capture immunoassay; calibrator C5, 30 ng/mL; mean of 3
[13] = target: CD9(FL)-ALP conjugate (human; bovine); assay: HI-1000 capture immunoassay; calibrator C1, 1.83 mU/L; mean of 3
[14] = target: CD9(FL)-ALP conjugate (human; bovine); assay: HI-1000 capture immunoassay; calibrator C3, 10.96 mU/L; mean of 3
[15] = target: CD9(FL)-ALP conjugate (human; bovine); assay: HI-1000 capture immunoassay; calibrator C4, 21.93 mU/L; mean of 3
[16] = target: CD9(FL)-ALP conjugate (human; bovine); assay: HI-1000 capture immunoassay; calibrator C5, 43.86 mU/L; mean of 3
[17] = target: CD9(ECD)-ALP conjugate (human; bovine); assay: HI-1000 capture immunoassay; primary calibrator C1, 1.52 ng/mL; run 1
[18] = target: CD9(ECD)-ALP conjugate (human; bovine); assay: HI-1000 capture immunoassay; primary calibrator C1, 1.52 ng/mL; run 3
[19] = target: CD9(ECD)-ALP conjugate (human; bovine); assay: HI-1000 capture immunoassay; primary calibrator C2, 4.89 ng/mL; run 3
[20] = target: CD9(ECD)-ALP conjugate (human; bovine); assay: HI-1000 capture immunoassay; secondary calibrator C1, 1.02 U/L; run 3
[21] = target: CD9(ECD)-ALP conjugate (human; bovine); assay: HI-1000 capture immunoassay; primary calibrator C3, 15.65 ng/mL; run 2
[22] = target: CD9(ECD)-ALP conjugate (human; bovine); assay: HI-1000 capture immunoassay; secondary calibrator C3, 14.32 U/L; run 2
[23] = target: CD9(ECD)-ALP conjugate (human; bovine); assay: HI-1000 capture immunoassay; secondary calibrator C3, 14.32 U/L; run 3
[24] = target: CD9(ECD)-ALP conjugate (human; bovine); assay: HI-1000 capture immunoassay; primary calibrator C5, 159.87 ng/mL; run 1
[25] = target: CD9(ECD)-ALP conjugate (human; bovine); assay: HI-1000 capture immunoassay; primary calibrator C5, 159.87 ng/mL; run 2
[26] = target: CD9(ECD)-ALP conjugate (human; bovine); assay: HI-1000 capture immunoassay; secondary calibrator C4, 129.62 U/L; run 3
[27] = target: CD9(ECD)-ALP conjugate (human; bovine); assay: HI-1000 capture immunoassay; secondary calibrator C5, 387.01 U/L; run 2
[28] = target: CD9(ECD)-ALP conjugate (human; bovine); assay: HI-1000 capture immunoassay; secondary calibrator C1; mean of 3 aliquots
[29] = target: CD9(ECD)-ALP conjugate (human; bovine); assay: HI-1000 capture immunoassay; thawed aliquot 1 of secondary calibrator C2
[30] = target: CD9(ECD)-ALP conjugate (human; bovine); assay: HI-1000 capture immunoassay; thawed aliquot 1 of secondary calibrator C3
[31] = target: CD9(ECD)-ALP conjugate (human; bovine); assay: HI-1000 capture immunoassay; thawed aliquot 1 of secondary calibrator C5
[32] = target: CD9(ECD)-ALP conjugate (human; bovine); assay: HI-1000 capture immunoassay; thawed aliquot 2 of secondary calibrator C5
[33] = target: CD9(ECD)-ALP conjugate (human; bovine); assay: HI-1000 capture immunoassay; thawed aliquot 3 of secondary calibrator C2
[34] = target: CD9(ECD)-ALP conjugate (human; bovine); assay: HI-1000 capture immunoassay; thawed aliquot 3 of secondary calibrator C3
[35] = target: CD9(ECD)-ALP conjugate (human; bovine); assay: HI-1000 capture immunoassay; primary calibrator C1, 1.52 ng/mL; mean of 3
[36] = target: CD9(ECD)-ALP conjugate (human; bovine); assay: HI-1000 capture immunoassay; primary calibrator C2, 4.89 ng/mL; mean of 3
[37] = target: CD9(ECD)-ALP conjugate (human; bovine); assay: HI-1000 capture immunoassay; primary calibrator C3, 15.65 ng/mL; mean of 3
[38] = target: CD9(ECD)-ALP conjugate (human; bovine); assay: HI-1000 capture immunoassay; primary calibrator C4, 50.05 ng/mL; mean of 3
[39] = target: CD9(ECD)-ALP conjugate (human; bovine); assay: HI-1000 capture immunoassay; primary calibrator C5, 159.87 ng/mL; mean of 3
[40] = target: CD9(ECD)-ALP conjugate (human; bovine); assay: HI-1000 capture immunoassay; secondary calibrator C4, 129.62 U/L; mean of 3

Sequence of CD9(FL)-ALP conjugate (human; bovine) (chain, as listed by the source, chain 1 of 2): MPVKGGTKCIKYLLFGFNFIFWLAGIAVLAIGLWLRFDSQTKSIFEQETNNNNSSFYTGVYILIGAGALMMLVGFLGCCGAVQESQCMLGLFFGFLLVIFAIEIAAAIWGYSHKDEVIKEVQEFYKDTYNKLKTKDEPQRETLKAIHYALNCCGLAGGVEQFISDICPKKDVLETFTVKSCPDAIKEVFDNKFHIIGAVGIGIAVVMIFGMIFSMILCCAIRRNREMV
Sequence of CD9(FL)-ALP conjugate (human; bovine) (P19111 20-506, chain 2 of 2): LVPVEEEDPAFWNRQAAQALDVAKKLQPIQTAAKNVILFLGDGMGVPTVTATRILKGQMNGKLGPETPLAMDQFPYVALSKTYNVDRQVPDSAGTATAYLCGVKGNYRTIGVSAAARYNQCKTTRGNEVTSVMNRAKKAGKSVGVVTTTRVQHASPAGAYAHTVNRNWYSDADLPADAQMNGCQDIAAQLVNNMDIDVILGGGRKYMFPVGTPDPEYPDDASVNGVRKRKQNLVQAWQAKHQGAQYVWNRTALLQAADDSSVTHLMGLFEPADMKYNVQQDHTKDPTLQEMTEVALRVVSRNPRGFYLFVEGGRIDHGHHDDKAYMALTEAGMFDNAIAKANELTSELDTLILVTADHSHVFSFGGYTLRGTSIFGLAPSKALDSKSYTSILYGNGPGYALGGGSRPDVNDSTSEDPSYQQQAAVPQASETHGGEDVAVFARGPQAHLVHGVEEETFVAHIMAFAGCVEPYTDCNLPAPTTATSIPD
Sequence of CD9(ECD)-ALP conjugate (human; bovine) (chain, as listed by the source, chain 1 of 2): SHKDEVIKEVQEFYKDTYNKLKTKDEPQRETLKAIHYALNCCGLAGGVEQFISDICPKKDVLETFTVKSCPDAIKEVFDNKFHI
Sequence of CD9(ECD)-ALP conjugate (human; bovine) (P19111 20-506, chain 2 of 2): as the sequence (P19111 20-506, chain 2 of 2) above

anti-CD9 antibody (Clone: H19a)
Count value [1]: 13000 count | Count value [2]: 24600 count | Count value [3]: 1420 count | Count value [4]: 5360 count | Count value [5]: 3800 count | Count value [6]: 1580 count | Count value [7]: 3630 count | Count value [8]: 3780 count | Count value [9]: 6330 count | Count value [10]: 13300 count | Count value [11]: 25600 count | Count value (av) [12]: 25900 count | Count value (av) [13]: 1540 count | Count value (av) [14]: 6750 count | Count value (av) [15]: 13300 count | Count value (av) [16]: 26400 count | Count value [17]: 1080 count | Count value [18]: 1120 count | Count value [19]: 2540 count | Count value [20]: 912 count | Count value [21]: 7230 count | Count value [22]: 8240 count | Count value [23]: 8060 count | Count value [24]: 70400 count | Count value [25]: 67600 count | Count value [26]: 69500 count | Count value [27]: 218000 count | Count value (av) [28]: 811 count | Count value [29]: 1560 count | Count value [30]: 3830 count | Count value [31]: 36500 count | Count value [32]: 36800 count | Count value [33]: 1520 count | Count value [34]: 3800 count | Count value (av) [35]: 1100 count | Count value (av) [36]: 2560 count | Count value (av) [37]: 7190 count | Count value (av) [38]: 22200 count | Count value (av) [39]: 69800 count | Count value (av) [40]: 70000 count
